This note sets out measurements from patent US7910100B2, “Antibodies directed to the mammalian EAG1 ion channel protein” (Max-Planck-Gesellschaft zur Forderung der Wissen, priority 2004, dated 2011).

Test [1] has as its system IPC-298 melanoma cells. The test can be described thus: IPC-298 cell proliferation with secondary immunotoxin Mab-ZAP. It counts as cell-based, human. The following applies: in combination with secondary immunotoxin Mab-ZAP (100 ng/well), 72 hours. How it is done:
In order to evaluate the specific suitability and efficacy of anti-Eag1 monoclonal antibodies for conjugation as primary immunotoxin, in vitro cell proliferation assays were performed in the presence of anti-Eag1 antibody in conjunction with a secondary antibody conjugated to saporin, a ribosome-inactivating protein from the seeds of the plant Saponaria officinalis. The secondary immunotoxin binds to the anti-Eag1 antibody is internalized into the cell alongside the primary antibody. Once the immunotoxin is internalised, saporin breaks away from the targeting agent and inactivates the ribosomes, which causes protein inhibition and, ultimately, cell death.
For the assay (FIG. 8a) 3000 IPC-298 cells were seeded in 60 μl/well FCS-containing medium on 96-well plates overnight. 100 ng/well (1 ng/μl) Mab-ZAP was mixed with 10 ng/μl of mouse monoclonal anti-Eag1 antibodies ImAb1 or ImAb4 in 40 μl FCS-containing medium for 1 h at 37° C. and then directly added to the cells in quadruplicates. […] The quantity of formazan product was measured by the amount of 490 nm absorbance using an ELISA plate reader.
For the assay shown in FIG. 8b 3000 IPC-298 cells were seeded in 60 μl/well FCS-containing medium on 96-well plates overnight. […] Absorbance was measured using a spectrofluorometer at 590 nm every 30 min.

Test [2] relates to IPC-298 melanoma cells. Nature of the test: Soft agar assay IPC-298 with secondary immunotoxin Mab-ZAP. It counts as cell-based, human. The following applies: 2.5 ng antibody with 100 pg Mab-ZAP, 10 days. Here is the method: For comparison Mab-ZAP was pre-incubated with 2.5 ng control IgG. After 30 min pre-incubation, 2000 IPC-298 cells in OptiMEM with 20 mM KCl were added and further incubated at 37° C. for 30 min. IPC-298 cells, pre-incubated with immunotoxin-labelled anti-EAG1 antibody, were resuspended in 50 μl/well 0.25% Difco noble agar containing OptiMEM with 0.5% FCS and plated on 50 μl/well 0.5% agarose underlayer containing OptiMEM with 0.5% FCS in quadruplicates. Additionally, 50 μl/well 0.25% feeding agar containing OptiMEM with 0.5% FCS was plated. Colonies were allowed to form for 10 days and were stained with 50 μl MTT (1 mg/ml in PBS) for 1.5 hours. Wells were scanned using an Epson scanner and colonies were counted using the Scion Image software.

For a further test, the system named is Eag2. Nature of the test: BIAcore cross-reactivity with Eag family member Eag2. The following applies: 10 μg/ml antibody, flow rate 20 μl/min; chip coated with Eag2 equivalent regions. It counts as binding. How it is done: In order to analyse cross-reactivity of anti-Eag1 antibodies of the invention with the most homologous Eag family member Eag2 a BIAcore™ binding analysis was performed. BIAcore chips were coated with Eag1 C-terminus (amino acids 694 to 962), the H5 region (amino acids 374 to 452) or Eag2 (the equivalent regions fused in a single construct). The interaction with anti-Eag1 antibodies ImAb1 and ImAb3 were analysed using 10 μg/ml antibody at a flow rate of 20 μl/min.
(In general: SPR reads the build-up and loss of mass on a sensor chip optically.)

B1: ImAb4: mouse monoclonal anti-Eag1 antibody, IgG2b kappa; light chain SEQ ID NO: 2, heavy chain SEQ ID NO: 4 (antibody, listed as Mus musculus)
heavy: MRVLILLWLFTAFPGILSDVQLQESGPGLVKPSQSLSLTCTVTGYSITSDYAWNWIRQFPGNKLEWMGYISYSGSTIYNPSLKSRISITRDTSKNQFFLQLNSVTTEDTATYYCARFGNYGNTLNYWGQGTSVTVSSAKTTPPSVYPLAPGCGDTTGSSVTLGCLVKGYFPESVTVTWNSGSLSSSVHTFPALLQSGLYTMSSSVTVPSSTWPSQTVTCSVAHPASSTTVDKKLEPSGPISTINPCPPCKECHKCPAPNLEGGPSVFIFPPNIKDVLMISLTPKVTCVVVDVSEDDPDVQISWFVNNVEVHTAQTQTHREDYNSTIRVVSTLPIQHQDWMSGKEFKCKVNNKDLPSPIERTISKIKGLVRAPQVYILPPPAEQLSRKDVSLTCLVVGFNPGDISVEWTSNGHTEENYKDTAPVLDSDGSYFIYSKLNMKTSKWEKTDSFSCNVRHEGLKNYYLKKTISRSPGK
light: MKLPVRLLVLMFWIPASSSDVVMTQTPLSLPVSLGDQASISCRSSQSLVHSNGNTYLHWYLQKPGQSPKLLIYKVSNRFSGVPDRFSGSGSGTDFTLKISRVEAEDLGVYFCSQSTHVPPTFGGGTKLEIKRADAAPTVSIFPPSSEQLTSGGASVVCFLNNFYPKDINVKWKIDGSERQNGVLNSWTDQDSKDSTYSMSSTLTLTKDEYERHNSYTCEATHKTSTSPIVKSFNRNEC
In the case of B1, the “inhibition of cell proliferation” value with IPC-298 melanoma cells [1] is listed as “inhibition of IPC-298 melanoma cell proliferation”. For the same molecule, the “inhibition of anchorage independent cell growth” value in the test with IPC-298 melanoma cells [2] was “inhibits anchorage independent tumor cell growth”.

B2: ImAb1: mouse monoclonal anti-Eag1 antibody; VL SEQ ID NO: 43, VH SEQ ID NO: 44; binds C-terminus of Eag1 (antibody, listed as Mus musculus)
heavy: MNFGFSLIFLVLVLKGVQCEVKLVESGGGLVKPGGSLKLSCAASGFTFSNYAMSWVRQTPEKRLEWVASISSDGDTYFPDNVKGRFTISRENAGNILFLQMSSLRSEDTAMYYCARGFMITFWGQGTLVTVSAAKTTPPSVYPLAPGCGDTTGSSVTLGCLVKGYFPESVTVTWNSGSLSSSVHTFPALLQSGLYTMSSSVTVPSSTWPSQTVTCSVAHPASSTTVD
light: MDMRAPAQFFGILLLWFPGIRCDIKMTQSPSSMYASLGERVTITCKASQDIKSYLSWYQQKPWKSPKILIYYATSLADGVPSRISGSGSGQDYSLTISSLESDDTATYYCLQHGESPYTFGGGTKLEIKRADAAPTVSIFPPSSEQLTSGGASVVCFLNNFYPKDINVKWKIDGSERQNGVLNSWTDQDSKDSTYSMSSTLTLTKDEYERHNSYTCEATHKTSTSPIVKSFNRNEC
B2: the “cross-reactivity with Eag2” value in the test with Eag2 is given as “do not cross-react with Eag2”.
